Assay [1] addresses T1, human recombinant soluble ACE2 (human, UniProt Q9BYF1 18-740).
T1 construct: also called hrsACE2
The assay is described as follows: ELISA. Background: An ELISA detects its analyte on a solid surface through an enzyme-linked reagent.

In assay [2] the target is T2, full-length trimeric SARS-CoV-2 Spike protein (Spike-H6) (SARS-CoV-2, N-glycosylated (22 N-glycosylation sites)).
T2 construct: also called trimeric Spike; full-length Spike-H6
The assay is described as follows: ELISA screen.

Assay [3] deals with T3, monomeric SARS-CoV-2 receptor binding domain (RBD-H6) (SARS-CoV-2, UniProt P0DTC2 319-541).
T3 construct: Made in HEK293-6E cells; also called RBD Spike; monomeric RBD
Briefly: ELISA screen.

The target in assay [4] is T1, human recombinant soluble ACE2. The assay is described as follows: ELISA screen.

T1 sequence (Q9BYF1 18-740 limits assumed): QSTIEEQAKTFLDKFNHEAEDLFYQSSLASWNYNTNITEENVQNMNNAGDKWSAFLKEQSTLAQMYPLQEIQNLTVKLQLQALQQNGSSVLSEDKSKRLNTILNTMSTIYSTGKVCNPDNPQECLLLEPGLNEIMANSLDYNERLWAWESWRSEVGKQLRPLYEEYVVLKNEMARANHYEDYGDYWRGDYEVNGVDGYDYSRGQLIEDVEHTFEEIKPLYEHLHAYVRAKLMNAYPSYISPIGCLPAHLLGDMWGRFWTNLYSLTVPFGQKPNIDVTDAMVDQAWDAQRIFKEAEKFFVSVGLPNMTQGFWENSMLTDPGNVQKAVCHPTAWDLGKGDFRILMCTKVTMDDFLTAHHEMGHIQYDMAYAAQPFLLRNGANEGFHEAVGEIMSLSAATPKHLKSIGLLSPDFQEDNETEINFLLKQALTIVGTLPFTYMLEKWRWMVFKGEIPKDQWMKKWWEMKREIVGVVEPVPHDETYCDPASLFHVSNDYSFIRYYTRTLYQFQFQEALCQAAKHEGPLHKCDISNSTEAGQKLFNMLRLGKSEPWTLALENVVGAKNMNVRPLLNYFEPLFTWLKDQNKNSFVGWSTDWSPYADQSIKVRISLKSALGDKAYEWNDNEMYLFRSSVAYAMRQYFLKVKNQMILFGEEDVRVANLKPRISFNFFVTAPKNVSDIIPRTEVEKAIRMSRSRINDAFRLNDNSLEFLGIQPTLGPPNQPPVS

B1: Pla2r1_5 CRD-mouse IgG2a-Fc fusion protein (Fc fusion)
chain: YQNAEYLFHTHPAEWATFEFVCGWLRSDFLTIYSAQEQEFIHSKIKGLTKYGVKWWIGLEEGGARDQIQWSNGSPVIFQNWDKGREERVDSQRKRCVFISSITGLWGTENCSVPLPSICKGGGSGGGSGGGS
As to B1, the binding result in assay [1] is “no binding (tested: 10 µg/ml)”. Further, the “Mean normalized OD” value in assay [2] was 0.029 OD; in assay [3], 0.036 OD; in assay [4], 0.065 OD.

B2: Mrc1_1 CRD-mouse IgG2a-Fc fusion protein (Fc fusion)
chain: LTGILYQINSKSALTWHQARASCKQQNADLLSVTEIHEQMYLTGLTSSLSSGLWIGLNSLSVRSGWQWAGGSPFRYLNWLPGSPSSEPGKSCVSLNPGKNAKWENLECVQKLGYICKGGGSGGGSGGGS
Turning to B2, the binding result in assay [1] is “no binding (tested: 10 µg/ml)”. Besides, the “Mean normalized OD” value was determined as 0.109 OD in assay [2], 0.076 OD in assay [3] and 0.161 OD in assay [4].

B3: Sele CRD-mouse IgG2a-Fc fusion protein (Fc fusion)
chain: WYYNASSELMTYDEASAYCQRDYTHLVAIQNKEEINYLNSNLKHSPSYYWIGIRKVNNVWIWVGTGKPLTEEAQNWAPGEPNNKQRNEDCVEIYIQRTKDSGMWNDERCNKKKLALCYGGGSGGGSGGGS
Take B3: the binding result in assay [1] is “no binding (tested: 10 µg/ml)”. The “Mean normalized OD” value is 0.001 OD in assay [2], 0 OD in assay [3] and 0 OD in assay [4].

B4: Pla2r1_4 CRD-mouse IgG2a-Fc fusion protein (Fc fusion)
chain: GLASCFKVFHSEKVLMKRSWREAEAFCEEFGAHLASFAHIEEENFVNELLHSKFNWTQERQFWIGFNRRNPLNAGSWAWSDGSPVVSSFLDNAYFEEDAKNCAVYKANKTLLPSNCASKHEWICRGGGSGGGSGGGS
In the case of B4, the binding result in assay [1] is reported as “no binding (tested: 10 µg/ml)”. Further, the “Mean normalized OD” value in assay [2] is 0.063 OD; in assay [3] it was 0.053 OD; in assay [4] it was 0.088 OD.

B5: Cd209d CRD-mouse IgG2a-Fc fusion protein (Fc fusion)
chain: FFNGSCYFFSKSQRNWHNSTTACQELGAQLVIIETDEEQTFLQQTSKARGPTWMGLSDMHNEATWHWVDGSPLSPSFTRYWNRGEPNNVGDEDCAEFSGDGWNDLSCDKLLFWICKGGGSGGGSGGGS
With B5, in assay [1], the binding result is “no binding (tested: 10 µg/ml)”. Also, the “Mean normalized OD” value in assay [2] is 0.01 OD; in assay [3] it was 0.019 OD; in assay [4], 0.039 OD.

B6: Mbl2 CRD-mouse IgG2a-Fc fusion protein (Fc fusion)
chain: KVGKKYFVSSVKKMSLDRVKALCSEFQGSVATPRNAEENSAIQKVAKDIAYLGITDVRVEGSFEDLTGNRVRYTNWNDGEPNNTGDGEDCVVILGNGKWNDVPCSDSFLAICEGGGSGGGSGGGS
For B6, the binding result in assay [1] is given as “no binding (tested: 10 µg/ml)”. The “Mean normalized OD” value in assay [2] was found to be 0.14 OD; in assay [3], 0.001 OD; in assay [4], 0 OD.

B7: Pkd1l3 CRD-mouse IgG2a-Fc fusion protein (Fc fusion)
chain: GGNSCYQLNRLFCDFQEADNYCHAQRGRLAHTWNPKLRGFLKSFLNEETVWWVRGNLTLPGSHPGINQTGGDDVLRNQKPGECPSVVTHSNAVFSRWNLCIEKHHFICQGGGSGGGSGGGS
As for B7, the binding result in assay [1] was “no binding (tested: 10 µg/ml)”. The figures for the “Mean normalized OD” value in assay [2], in assay [3] and in assay [4] were 0.046 OD, -0.001 OD and 0.017 OD, respectively.

B8: Selp CRD-mouse IgG2a-Fc fusion protein (Fc fusion)
chain: WTYNYSTKAYSWNNSRVFCRRHFTDLVAIQNKNEIAHLNDVIPFFNSYYWIGIRKINNKWTWVGTNKTLTEEAENWADNEPNNKKNNQDCVEIYIKSNSAPGKWNDEPCFKRKRALCGGGSGGGSGGGS
For the molecule B8, in assay [1], the binding result was “no binding (tested: 10 µg/ml)”. Besides, the “Mean normalized OD” value turned out to be 0.014 OD in assay [2], 0.007 OD in assay [3] and 0 OD in assay [4].

B9: Mrc1_2 CRD-mouse IgG2a-Fc fusion protein (Fc fusion)
chain: YAGHCYRIHREEKKIQKYALQACRKEGGDLASIHSIEEFDFIFSQLGYEPNDELWIGLNDIKIQMYFEWSDGTPVTFTKWLPGEPSHENNRQEDCVVMKGKDGYWADRACEQPLGYICKGGGSGGGSGGGS
As for B9, the binding result in assay [1] is “no binding (tested: 10 µg/ml)”. The “Mean normalized OD” value in assay [2] was -0.028 OD; in assay [3], 0.106 OD; in assay [4], 0 OD.

B10: Sftpd CRD-mouse IgG2a-Fc fusion protein (Fc fusion)
chain: VGDKIFRTADSEKPFEDAQEMCKQAGGQLASPRSATENAAIQQLITAHNKAAFLSMTDVGTEGKFTYPTGEPLVYSNWAPGEPNNNGGAENCVEIFTNGQWNDKACGEQRLVICEFGGGSGGGSGGGS
As to B10, the binding result in assay [1] is on record as “no binding (tested: 10 µg/ml)”. For the same molecule, the figures for the “Mean normalized OD” value in assay [2], in assay [3] and in assay [4] were 0.031 OD, 0.002 OD and 0.016 OD, respectively.

B11: Mrc2_7 CRD-mouse IgG2a-Fc fusion protein (Fc fusion)
chain: YLNHTFRLLQKPLRWKDALLLCESRNASLAHVPDPYTQAFLTQAARGLQTPLWIGLASEEGSRRYSWLSEEPLNYVSWQDEEPQHSGGCAYVDVDGTWRTTSCDTKLQGAVCGGGSGGGSGGGS
On to B11, for which, in assay [1], the binding result is “no binding (tested: 10 µg/ml)”. Further, the “Mean normalized OD” value in assay [2] was 0.002 OD; in assay [3], 0.002 OD; in assay [4] it was 0 OD.

B12: Ly75_8 CRD-mouse IgG2a-Fc fusion protein (Fc fusion)
chain: FQNSCYNFMITNNRHKTVTPEEVQSTCEKLHSKAHSLSIRNEEENTFVVEQLLYFNYIASWVMLGITYENNSLMWFDKTALSYTHWRTGRPTVKNGKFLAGLSTDGFWDIQSFNVIEETLHFYQGGGSGGGSGGGS
Regarding B12, in assay [1], the binding result is reported as “no binding (tested: 10 µg/ml)”. Also, the “Mean normalized OD” value is 0.011 OD in assay [2], 0.007 OD in assay [3] and 0.054 OD in assay [4].

B13: Pla2r1_7 CRD-mouse IgG2a-Fc fusion protein (Fc fusion)
chain: YGNRTYKIIRGNMTWYAAGKSCRMHRAELASIPDAFHQAFLTVLLSRLGHTHWIGLSTTDNGQTFDWSDGTKSPFTYWKDEESAFLGDCAFADTNGRWHSTACESFLQGAICGGGSGGGSGGGS
B13: in assay [1], the binding result is “no binding (tested: 10 µg/ml)”. The results for the “Mean normalized OD” value in assay [2], in assay [3] and in assay [4] were 0.002 OD, 0 OD and 0 OD, respectively.

B14: Mrc2_2 CRD-mouse IgG2a-Fc fusion protein (Fc fusion)
chain: FQGHCYRLQAEKRSWQESKRACLRGGGDLLSIHSMAELEFITKQIKQEVEELWIGLNDLKLQMNFEWSDGSLVSFTHWHPFEPNNFRDSLEDCVTIWGPEGRWNDSPCNQSLPSICKGGGSGGGSGGGS
As for B14, in assay [1], the binding result is “no binding (tested: 10 µg/ml)”. The entries for the “Mean normalized OD” value in assay [2], in assay [3] and in assay [4] were 0.017 OD, 0.038 OD and 0.009 OD, respectively.

B15: Mrc2_3 CRD-mouse IgG2a-Fc fusion protein (Fc fusion)
chain: HSPSCYWLGEDQVIYSDARRLCTDHGSQLVTITNRFEQAFVSSLIYNWEGEYFWTALQDLNSTGSFRWLSGDEVIYTHWNRDQPGYRRGGCVALATGSAMGLWEVKNCTSFRARYICGGGSGGGSGGGS
For B15, the binding result in assay [1] is “no binding (tested: 10 µg/ml)”. Moreover, the “Mean normalized OD” value in assay [2] is 0.003 OD; in assay [3], 0.003 OD; in assay [4] it was 0.01 OD.
